Consider 2 molecules from US20100129344A1, “MEDICAL USES AND THERAPIES BASED UPON THE ACTION OF AZUROCIDIN ON IGFBP-1” (priority 2005, published 2010).

One experiment addresses T1, IGFBP-1 (Homo sapiens, UniProt P08833).
T1 construct: purchased Kabi Pharmacia (Sweden), donated
T1 sequence (P08833 26-259): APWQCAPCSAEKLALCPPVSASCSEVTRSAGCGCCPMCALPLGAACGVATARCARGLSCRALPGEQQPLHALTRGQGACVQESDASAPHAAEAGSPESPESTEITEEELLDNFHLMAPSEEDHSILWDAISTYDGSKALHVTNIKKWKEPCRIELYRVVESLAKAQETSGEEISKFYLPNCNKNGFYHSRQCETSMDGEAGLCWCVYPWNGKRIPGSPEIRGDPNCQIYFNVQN
Description: Azurocidin-dependent IGFBP-1 protease activity (SDS-PAGE, ECL or silver staining). The format is biochemical. The method, then: Recombinant phosphorylated IGFBP-1 was used as substrate and incubations were carried out under neutral conditions for 2 h at 37 C. IGFBP-1 fragments were separated on SDS-PAGE, and detected by ECL as described in the methods. Panel A: Incubations with 0.25 μL eluate (HE) from heparin affinity chromatography (50 μl urine equiv.) in the presence and absence of anti-azurocidin antibody; and 1 μl HE of the loading material (L), and the flow through after affinity chromatography on protein G columns without (G) and with bound anti-chymase (C) or anti-azurocidin (A) antibodies. Panel B: Incubations in the presence and absence of 25 ng anti-azurocidin antibody with increasing volumes of white cell extract from the individual with a specific IGFBP-1 protease in urine compared to the white cell extract pooled from 6 healthy subjects;
Recombinant IGFBP-1 was incubated with the eluate from heparin affinity chromatography (HE) with a ratio of azurocidin:BP-1 of 1:3,500. After the times indicated, proteins were detected by silver staining after SDS-PAGE;
Gels were fixed, dried and analysed with the Fuji PhosphoImage program (Fuji Co., Stockholm, Sweden). Biotinylated IGFBP-1 and its fragments were separated on 14% SDS-PAGE under reducing conditions, transferred to PVDF (Biorad, Sundbyberg, Sweden), incubated with neutravidin-horseradish peroxidase (Pierce Biotechnology Inc, Rochester, Ill.) and detected by ECL (Amersham Biosciences, Uppsala, Sweden). Silver staining of proteins and fragments was performed after denaturing 12% PAGE under reducing conditions (SilverQuest and NuPAGE, Invitrogen, Stockholm, Sweden).
Heparin affinity chromatography was carried out in batches using heparin-agarose gel (Pharmacia). Urine was diluted 1:5 in 10 mM sodium phosphate, with 0.25 M NaCl buffer, pH 7 and incubated with gel for 30 min at 4 C. The gel was transferred to a column and washed with 10 times the gel volume of buffer. Heparin binding proteins were eluted in loading buffer containing 2M NaCl and the eluate was desalted, concentrated using a 10 kDa spin column and stored at −80 C. Concentrated material derived from 700 ml urine were applied to C4 reverse-phase HPLC, in 0.1% TFA on an acetonitrile gradient of 0-100%. Immunoaffinity chromatography was performed using monoclonal anti-azurocidin antibody attached to protein G Sepharose (Sigma-Aldrich, Sweden). In brief, antibody bound gel was incubated with the eluate from heparin affinity chromatography for 2 h at 22 C, and transferred to a Bio-Spin chromatography column (BioRad). The flow-through was collected for analysis of protease activity. As controls, an additional column was prepared with a monoclonal antibody against human mast cell chymase and a second column with no bound antibody.

The test system of a further experiment is monocyte. The following applies: cited from earlier work.
For experiment [1] the following is noted: pH increased from 5.5 to 6.5; cited from earlier work.
For a further experiment, the target named is IGF-I (Homo sapiens, UniProt P05019). Conditions: IGFBP-1 purified from amniotic fluid; cited from earlier work.
Sequence of IGF-I (P05019 49-118): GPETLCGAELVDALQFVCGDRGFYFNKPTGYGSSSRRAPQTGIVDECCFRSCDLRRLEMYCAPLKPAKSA
Another experiment concerns the target IGF-II (Homo sapiens, UniProt P01344). The following applies: IGFBP-1 purified from amniotic fluid; cited from earlier work.

Sequence of IGF-II (P01344 25-91): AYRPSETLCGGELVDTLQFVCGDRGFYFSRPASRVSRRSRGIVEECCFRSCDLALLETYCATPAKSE

B1: azurocidin: protein from granules of human polymorphonuclear leukocytes, SEQ ID NO. 1; identified here as IGFBP-1 specific protease (protein, listed as Homo sapiens)
chain: IVGGRKARPRQFPFLASIQNQGRHFCGGALIHARFVMTAASCFQSQNPGVSTVVLGAYDLRRRERQSRQTFSISSMSENGYDPQQNLNDLMLLQLDREANLTSSVTILPLPLQNATVEAGTRCQVAGWGSQRSGGRLSRFPRFVNVTVTPEDQCRPNNVCTGVLTRRGGICNGDGGTPLVCEGLAHGVASFSLGPCGRGPDFFTRVALFRDWIDGVLNNPGPGPA
B1: the “pH above which action on IGFBP-1 is greater” value with IGFBP-1 is on record as over 6. In addition, in the experiment with IGFBP-1 (after reverse-phase HPLC), the “effect on IGFBP-1 (proteolysis) after HPLC-passage” value is recorded as “without effect”. Further, the “time until proteolysis of phosphorylated IGFBP-1 is seen” value with IGFBP-1 (protease:substrate molar ratio 1:3,500) was “within minutes”. Also, the “concentration at which proteolytic effect on IGFBP-1 is noticeable” value in the experiment with IGFBP-1 (purified preparation) is recorded as “nanomolar”. Moreover, the “concentration level required for monocyte chemotaxis” value in the experiment on monocyte is reported as “micromolar”. Also, in experiment [1], the “decrease of bactericidal activity” value is on record as “at least 50%”.

B2: IGFBP-1 purified from amniotic fluid: 28 kDa IGF-binding protein purified from human amniotic fluid (protein, UniProt P08833 26-259, looked up)
Insulin-like growth …: T1 sequence (P08833 26-259)
For the molecule B2, the “association constant for IGF-I” value with IGF-I is given as “approximately 6.6×10^9 L/mol”. The “association constant for IGF-II” value with IGF-II is about 3.2e+09 L/mol.
